The target in assay [1] is T1, cynomolgus BDCA2 (cynomolgus monkey, UniProt A0A2K5UWP4 1-212).
T1 construct: whole, on cells; also called Cyno BDCA2; cynoBDCA2
T1 sequence: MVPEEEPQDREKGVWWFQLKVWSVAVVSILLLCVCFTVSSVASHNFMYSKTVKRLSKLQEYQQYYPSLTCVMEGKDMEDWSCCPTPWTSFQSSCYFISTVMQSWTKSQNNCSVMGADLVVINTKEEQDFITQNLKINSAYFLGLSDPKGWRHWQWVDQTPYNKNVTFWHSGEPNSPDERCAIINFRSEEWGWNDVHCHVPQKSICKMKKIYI
Put plainly: FACS on 293F-cynoBDCA2 cells; EC50 table under the plot, unit from the x axis (nM) [continued) c.]. As to the method: (§1) The cells were recovered and resuspended to 2×10⁶/mL with FACS buffer (PBS+2% FBS). The cells were added to 3799 cell plates (Corning) at 100 μL/well, and the supernatant was discarded after centrifugation at 300 g. The antibodies were serially diluted with FACS buffer (Id.), the diluted antibodies were added to centrifuged cells and the cells were resuspended. The cells were incubated at 4° C. for 1 h. The incubated cells were then centrifuged at […] for 5 min and washed twice with FACS buffer. 100 μL Donkey anti-Mouse IgG (H+L) Highly Cross-Adsorbed Secondary Antibody-Alexa Fluor 488 (Invitrogen, A21202; 1:1000) secondary antibody was added to the cells, which were washed twice with FACS buffer after incubation at 4° C. for 1 h, resuspended with PBS, analyzed with FACS (BD FACS CantoTM II) instrument. The curve was fitted with GraphPad Prism6, and EC₅₀ values were calculated.

Assay [2] concerns the target T2, human BDCA2 (human, UniProt Q8WTT0 1-213).
T2 construct: whole, on cells; also called hBDCA2; Blood dendritic cell antigen 2
T2 sequence (looked up): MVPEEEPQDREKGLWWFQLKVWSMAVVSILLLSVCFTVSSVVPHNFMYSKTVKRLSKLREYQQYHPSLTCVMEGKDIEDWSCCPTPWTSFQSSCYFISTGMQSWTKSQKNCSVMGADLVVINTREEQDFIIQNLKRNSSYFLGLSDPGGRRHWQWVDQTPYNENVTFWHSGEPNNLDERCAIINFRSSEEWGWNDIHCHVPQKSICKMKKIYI
Put plainly: FACS on CHOK1-hBDCA2 cells; EC50 table under the plot, unit from the x axis (nM) [continued) c.]. How it is done: as §1

In assay [3] the target is T2, human BDCA2. In words: FACS on CHOK1-hBDCA2 cells; EC50 table under the plot, unit from the x axis (nM) [continued) e.]. As to the method: as §1
The target of assay [4] is T3, Human BDCA2 Fc recombinant protein (human).
T3 construct: Human IgG1 Fc N-terminal of the BDCA2 extracellular domain (Asn45-Ile213), fused by a linker; also called BDCA2-Fc protein
Put plainly: ELISA, coated humanBDCA2 Fc. As to the method:
HumanBDCA2 Fc protein or cynoBDCA2 His protein was diluted with PBS to 1 μg/mL and added to ELISA microplates at 100 μL/well and incubated at 4° C. overnight. The plates were blocked with ELISA blocking solution (PBS phosphate buffer with 1% BSA, pH 7.4, the percentages representing mass percentages) at 37° C. for 2 hours. Sequential 10-fold serial dilutions of antibodies were added at 8 concentrations (0.0001 nM-100 nM, including 0 point control) in total at 100 μL/well. The plates were incubated at 37° C. for 1 hour, then washed 3 times and after anti-mouse IgG (Fab specific)-HRP (Sigma, A3682; 1: 5000 dilution) secondary antibodies were added at 100 μL/well, were incubated at 37° C. for 1 h. The plates were washed 3 times, TMB development fluid (EL0009, Huzhou Ying Chuang Biotechnology) was added at 100 μL/well and 50 μL 1N hydrochloric acid was added after incubation at 37° C. for 10 min to stop the development reaction. OD450 nm values were read with ELISA plate reader and the curve was fitted with GraphPad Prism6, and EC₅₀ values were calculated.
In general terms: An ELISA detects its analyte on a solid surface through an enzyme-linked reagent.

In assay [5] the target is T1, cynomolgus BDCA2. In words: FACS on 293F-cynoBDCA2 cells; EC50 table under the plot, unit from the x axis (nM) [continued) e.]. As to the method: as §1
Assay [6] concerns the target T2, human BDCA2. In words: FACS on CHOK1-hBDCA2 cells; EC50 table under the plot, unit from the x axis (nM). As to the method:
(§2) The cells were recovered and resuspended to 2×10⁶/mL with FACS buffer (PBS+2% FBS). The cells were added to 3799 cell plates (Corning) at 100 μL/well, and the supernatant was discarded after centrifugation at 300 g. The antibodies were serially diluted with FACS buffer (Id.), the diluted antibodies were added to centrifuged cells and the cells were resuspended. The cells were incubated at 4° C. for 1 h. The incubated cells were centrifuged at 300 g for 5 min and washed twice with FACS buffer. 100 μL […] anti-Human IgG (H+L) Cross-Adsorbed Secondary Antibody-Alexa Fluor 488 (Sigma, A11013; 1:1000) secondary antibody was added, washed twice with FACS buffer after incubation at 4° C. for 1 h, resuspended with PBS, analyzed with FACS (BD FACS CantoTM II) instrument and curve fitted with GraphPad Prism6, and EC₅₀ values were calculated.

Assay [7] concerns the target T2, human BDCA2. In words: cell-based or functional assay.
For assay [8], the target named is T2, human BDCA2. Put plainly: FACS on CHOK1-hBDCA2 cells; EC50 table under the plot, unit from the x axis (nM). The source holds these as a separate data set.
Assay [9] addresses T2, human BDCA2. The description is as above. How it is done:
as §2
The source holds these as a separate data set.

Assay [10] has as its target T2, human BDCA2. Put plainly: FACS, CHOK1-humanBDCA2 cells. As to the method:
The cells were recovered and resuspended to 2×10⁶/mL with FACS buffer (PBS+2% FBS). The resuspended cells were added to 3799 cell plates at 100 μL/well, and the supernatant was discarded after centrifugation at 300 g. […] The cells were incubated at 4° C. for 1 h. The incubated cells were centrifuged at […] for 5 min and washed twice with FACS buffer. 100 μL Goat anti-Human IgG (H+L) Cross-Adsorbed Secondary Antibody, Alexa Fluor 488 (Sigma, A11013; 1:1000) secondary antibody was added, washed twice with FACS buffer after incubation at 4° C. for 1 h. The cells were resuspended with PBS, then the fluorescence signal of antibodies bound to cell surface was analyzed with FACS (BD FACS CantoTM II) instrument and curves were fitted with GraphPad Prism6 to calculate EC₅₀ values for antibodies binding to BDCA2 antigen.
(In flow cytometry, cells or beads pass a laser one at a time.)

The target in assay [11] is T4, Recombinant Human BDCA2 (human, UniProt Q8WTT0 45-213, limits assumed).
T4 construct: also called hBDCA2 (SPR analyte); human BDCA2 antigen
T4 sequence (looked up): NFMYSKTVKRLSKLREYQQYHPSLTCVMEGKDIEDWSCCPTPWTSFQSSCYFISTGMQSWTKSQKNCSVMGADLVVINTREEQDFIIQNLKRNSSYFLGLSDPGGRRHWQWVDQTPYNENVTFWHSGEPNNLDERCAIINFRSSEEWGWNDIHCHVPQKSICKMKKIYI
Put plainly: SPR (BIAcore), antibody captured by anti-human IgG (Fc), hBDCA2 as analyte, 1:1 model. In general terms: In SPR one partner is held on a chip, and binding of the other changes the refractive index at the surface.

In assay [12] the target is T2, human BDCA2. Put plainly: FACS on CHOK1-hBDCA2 cells; EC50 table under the plot, unit from the x axis (nM). How it is done:
as §1
This is another data set of the same source.

Assay [13] addresses T2, human BDCA2. In words: FACS, CHOK1-humanBDCA2 cells. This is another data set of the same source.
The target in assay [14] is T2, human BDCA2. Put plainly: FACS on CHOK1-hBDCA2 cells; EC50 table under the plot, unit from the x axis (nM) [continued) d.]. How it is done:
as §1

Assay [15] deals with T2, human BDCA2. Put plainly: cell-based or functional assay. This is another data set of the same source.
The target of assay [16] is T2, human BDCA2. Put plainly: FACS on CHOK1-hBDCA2 cells; EC50 table beside the plot, unit from the x axis (nM) [continued) c.]. As to the method:
as §2

We go through five molecules from patent US20250346673A1 (DUALITY BIOLOGICS SUZHOU, published 2025).

B1: mAb016 (antibody, V domains shown)
VH: QVQLKQSGPGLVQPSQSLSITCTVSGFSLTSYGVHWVRQSPGKGLEWLGVIWSGESTDYDAAFISRLSISKDNSKSQVFFRMNSLQADDSAIYYCARRRSHYYGYVMDYWGQGTSVTVSS
VL: DIVLTQSPASLAVSLGQRATISCKASQSVDYDGVGYLNWYQHKPGQPPKLLIYAASNLESGIPARFSGSGSGTDFTLNIHPVEEEDAATYYCQQSNEDPPTFGSGTKLEIK
notes: Mouse hybridoma antibody
B1: the EC50 in assay [1] came out at 1.78 nM; in assay [2] it was 1.33 nM.

B2: mAb034 (antibody, V domains shown)
VH: DVQLQESGPGLVKPSQSLSLTCSVTGYSITSGYYWNWIRQFPGNKLECMGYITYDGSNNYNPSLKDRISITRDTSKNQFFLKLNSVTTEDTATYYCARGGDYDDGGFAYWGHGTLVTVSA
VL: DIQMTQSPVSLSASVGETVTITCRASGNIHNYLAWYQQKQGKSPQLLVYNAKSLVDGVPSRFSGSGSGTQYSLKINSLQPEDFGSYYCQHFWIIPYTFGGGTKLEIK
notes: Mouse hybridoma antibody
Turning to B2, the EC50 in [3] is 0.705 nM; in assay [4], below 0.3 nM; in assay [5] it was 1.96 nM.

B3: mab001c (antibody, V domains shown)
VH: QIQLVQSGPELKKPGETVKISCKASGYTFTDFSMHWVKQAPGKGLKWMGWINTETGEPTYADDFKGRFAFSLETSASTAFLQINNLKNDDTTTYFCSRGGDGHPYWYFAVWGAGTTVTVSS
VL: DIVLTQSPASLAVSLGQRATISCRASQSVSTSSYSYMHWYQQKPGQPPKLLIKYASILESGVPARFSGSGSGTDFTLNIHPVEEEDTATYYCQHSWEIPFTFGSGTKLEIK
Molecule B3 came in with an EC50 in [6] of 1.9 nM.

B4: mAb033 (antibody, V domains shown)
VH: EVQMVESGGDLVKPGDSLKLSCAASGFTFRSYGMSWVRQTPDKRLEWVATISSGDSYTYYPDSVKGRFTISRDNAKNTLYLQMSSLKSEDTALYYCARQIYYDYAYYFDFWGQGTTLTVSS
VL: DIVLTQSPASLAVSLGQRATISCRASESVSFRTSHLMHWYQQKPGQPPKLLIYGASNLESGVPARFSGSGSETDFTLNIHPVEEEDAAAYFCQQSIEDPPTFGGGTKLEIK
notes: Mouse hybridoma antibody
With B4, the results for the EC50 in assay [3] and in assay [5] were 0.388 nM and 1.18 nM, respectively. Further, the “IC50 for inhibiting cytokine IFNα release, CpG-A stimulated human PBMC” value in assay [7] amounted to 0.00408 nM.

B5: BIIB059 (antibody, V domains shown)
VH: DVQLVESGGGLVKPGGSLRLSCAASGFTFSTYTMSWVRQAPGKGLEWVATISPGDSFGYYYPDSVQGRFTISRDNAKNSLYLQMNSLRAEDTAVYYCTRDIYYNYGAWFAYWGQGTLVTVSS
VL: DIQLTQSPSSLSASVGDRVTITCKASQSVDYDGDSYMNWYQQKPGKAPKLLIYAASTLESGVPSRFSGSGSGTDFTLTISSLQPEDFATYYCQQANEDPRTFGQGTKVEIKR
As for B5, the EC50 is 1.91 nM in [3]; 2.17 nM in [8]; 1.91 nM in assay [9]; 3.1 nM in assay [10]; 2.17 nM in [12]; 1.3 nM in [13]. Also, the EC50 in [14] is 1.09 nM; in assay [6] it was 3.45 nM; in [2], 2.48 nM; in assay [16], 2 nM. In [11], the Kd was 1.07 nM. Also, the “EC50 (nM), inhibition of CpG-A stimulated IFNα release from human PBMC” value in [15] was found to be 0.04 nM.

Usually EC50 stands for the concentration giving half of the maximal effect. A word on the Kd: it is the free concentration of one partner at which half of the binding sites on the other are occupied at equilibrium, for simple one-to-one binding.
